Data from article PMC7036284 (Chemical research in toxicology, 2019).

Biological target: the molecule itself
Experiment: SEC-MALS

Protein | stoichiometry N
F^44L Tsa1 (recombinant, 6X-His tagged) (enzyme, S. cerevisiae) MVAQVQKQAPTFKKTAVVDGVFDEVSLDKYKGKYVVLAFIPLALTFVCPTEIIAFSEAAKKFEEQGAQVLFASTDSEYSLLAWTNIPRKEGGLGPINIPLLADTNHSLSRDYGVLIEEEGVALRGLFIIDPKGVIRHITINDLPVGRNVDEALRLVEAFQWTDKNGTVLPCNWTPGAATIKPTVEDSKEYFEAANK | 2
FYA Tsa1 (F^44A,Y^78A; recombinant, 6X-His tagged) (enzyme, S. cerevisiae) MVAQVQKQAPTFKKTAVVDGVFDEVSLDKYKGKYVVLAFIPLAATFVCPTEIIAFSEAAKKFEEQGAQVLFASTDSEASLLAWTNIPRKEGGLGPINIPLLADTNHSLSRDYGVLIEEEGVALRGLFIIDPKGVIRHITINDLPVGRNVDEALRLVEAFQWTDKNGTVLPCNWTPGAATIKPTVEDSKEYFEAANK | 2
Y^78A Tsa1 (recombinant, 6X-His tagged) (enzyme, S. cerevisiae) MVAQVQKQAPTFKKTAVVDGVFDEVSLDKYKGKYVVLAFIPLAFTFVCPTEIIAFSEAAKKFEEQGAQVLFASTDSEASLLAWTNIPRKEGGLGPINIPLLADTNHSLSRDYGVLIEEEGVALRGLFIIDPKGVIRHITINDLPVGRNVDEALRLVEAFQWTDKNGTVLPCNWTPGAATIKPTVEDSKEYFEAANK | 2
Y^78L Tsa1 (recombinant, 6X-His tagged) (enzyme, S. cerevisiae) MVAQVQKQAPTFKKTAVVDGVFDEVSLDKYKGKYVVLAFIPLAFTFVCPTEIIAFSEAAKKFEEQGAQVLFASTDSELSLLAWTNIPRKEGGLGPINIPLLADTNHSLSRDYGVLIEEEGVALRGLFIIDPKGVIRHITINDLPVGRNVDEALRLVEAFQWTDKNGTVLPCNWTPGAATIKPTVEDSKEYFEAANK | 2
FYL Tsa1 (F^44L,Y^78L; recombinant, 6X-His tagged) (enzyme, S. cerevisiae) MVAQVQKQAPTFKKTAVVDGVFDEVSLDKYKGKYVVLAFIPLALTFVCPTEIIAFSEAAKKFEEQGAQVLFASTDSELSLLAWTNIPRKEGGLGPINIPLLADTNHSLSRDYGVLIEEEGVALRGLFIIDPKGVIRHITINDLPVGRNVDEALRLVEAFQWTDKNGTVLPCNWTPGAATIKPTVEDSKEYFEAANK | 2

Biological target: the molecule itself
Experiment: native gel or EMSA

Protein | stoichiometry N
wild-type Tsa1 (recombinant, 6X-His tagged) (enzyme, S. cerevisiae) MVAQVQKQAPTFKKTAVVDGVFDEVSLDKYKGKYVVLAFIPLAFTFVCPTEIIAFSEAAKKFEEQGAQVLFASTDSEYSLLAWTNIPRKEGGLGPINIPLLADTNHSLSRDYGVLIEEEGVALRGLFIIDPKGVIRHITINDLPVGRNVDEALRLVEAFQWTDKNGTVLPCNWTPGAATIKPTVEDSKEYFEAANK | 10
F^44A Tsa1 (recombinant, 6X-His tagged) (enzyme, S. cerevisiae) MVAQVQKQAPTFKKTAVVDGVFDEVSLDKYKGKYVVLAFIPLAATFVCPTEIIAFSEAAKKFEEQGAQVLFASTDSEYSLLAWTNIPRKEGGLGPINIPLLADTNHSLSRDYGVLIEEEGVALRGLFIIDPKGVIRHITINDLPVGRNVDEALRLVEAFQWTDKNGTVLPCNWTPGAATIKPTVEDSKEYFEAANK | 2
